In patent US11198713B2, “Agents modulating beta-catenin functions and methods thereof” (FOG PHARMACEUTICALS, INC., priority 2017, dated 2021):
In brackets after ≈: the same amount, converted by molar mass. Where two headings read alike, the source gives them in different places. Each block holds one molecule with its values, some of them ahead of it. Numbered stars: 1 amine (or outer) side, 2 acyl side, 3 side chain; on linkers, the order of the positions; unused ones are H or OH. Bridge positions count the residues as written; N and C are the ends. Square brackets hold non-standard residues; d marks the D form. Primed or numbered codes have the meaning given here. Peptide text beside a SMILES is read from it. * marks the point of attachment. MB(4) = Monomer B (PyrS), N-Alloc pyrrolidine stapling residue, (S)-3-amino-1-(allyloxycarbonyl)pyrrolidine-3-carboxylic acid, C=CCOC(=O)N1CC[C@@](N[*:1])(C(=O)[*:2])C1; R7″ = stapling residue, (R)-2-(6-heptenyl)alanine (drawn only), C=CCCCCC[C@@](C)(N[*:1])C(=O)[*:2]; MB = Monomer B = PyrS, Alloc-pyrrolidine stapling residue (allyl carbamate on pyrrolidine N); R7 = (R)-2-(6-heptenyl)alanine, C=CCCCCC[C@@](C)(N[*:1])C(=O)[*:2]; dαMeDab(Me) = CN(CC[C@@](C)(N[*:1])C(=O)[*:2])[*:3]; X1 = O=C([C@]1(N[*:1])CCN([*:3])C1)[*:2]; αMeW = C[C@](N)(Cc1c[nH]c2ccccc12)C(=O)O; X2 = O=C(OCC=CCOC(=O)[*:2])[*:1]; R8 = C=CCCCCCC[C@@](C)(N)C(=O)O; αMeL = CC(C)C[C@](C)(N)C(=O)O; Lauroyl = CCCCCCCCCCCC(=O)*; Octanoyl = CCCCCCCC(=O)*

Key:
[1] = Solubility in DPBS (A280 of supernatant); type: physicochemical; details: for solubility: Table 2, read-out: Solubility
Method: Suitable assays for assessing solubility are widely known in the art and can be utilized in accordance with the present disclosure. In some embodiments, in an exemplary protocol, dried peptide was reconstituted in DPBS (DPBS, 1×, cell culture grade, Sigma D8537) in triplicate, vortexed, sonicated and then centrifuged. Absorbance of the supernatant was measured at A280 (Nanodrop 2000) and the concentration was determined using the extinction coefficient for tryptophan. Exemplary solubility data are presented in, e.g., Table 2.

full-length beta-catenin = molecular target: T1, full-length beta-catenin (UniProt P35222 2-781, limits assumed); assay: competition FP, grade of FP EC50 (+: 500-5000 nM)
T1 construct: mature; also called full-length ß-Catenin; β-catenin
T1 sequence (looked up): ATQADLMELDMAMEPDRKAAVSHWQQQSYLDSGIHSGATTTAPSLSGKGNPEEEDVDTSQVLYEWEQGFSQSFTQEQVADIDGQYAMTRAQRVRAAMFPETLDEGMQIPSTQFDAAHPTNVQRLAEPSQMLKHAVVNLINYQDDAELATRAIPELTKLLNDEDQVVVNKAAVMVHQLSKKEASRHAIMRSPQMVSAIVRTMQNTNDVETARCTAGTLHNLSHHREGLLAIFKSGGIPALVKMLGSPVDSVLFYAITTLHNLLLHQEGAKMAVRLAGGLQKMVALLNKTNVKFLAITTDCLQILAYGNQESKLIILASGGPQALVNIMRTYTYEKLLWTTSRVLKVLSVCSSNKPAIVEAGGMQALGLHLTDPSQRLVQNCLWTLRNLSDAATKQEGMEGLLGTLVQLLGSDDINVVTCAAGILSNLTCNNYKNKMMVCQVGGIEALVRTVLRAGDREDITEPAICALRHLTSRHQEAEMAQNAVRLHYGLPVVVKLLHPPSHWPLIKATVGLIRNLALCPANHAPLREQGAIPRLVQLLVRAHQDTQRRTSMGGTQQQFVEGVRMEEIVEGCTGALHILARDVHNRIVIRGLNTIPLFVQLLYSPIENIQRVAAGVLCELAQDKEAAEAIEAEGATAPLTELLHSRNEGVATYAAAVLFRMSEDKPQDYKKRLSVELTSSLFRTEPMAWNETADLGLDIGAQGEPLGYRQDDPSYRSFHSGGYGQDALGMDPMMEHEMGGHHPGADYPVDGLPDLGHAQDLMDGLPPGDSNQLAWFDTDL
Method: In some embodiments, a competition fluorescence polarization assay is used to assess binding of provided compounds to beta-catenin. In an exemplary procedure, solutions of provided compounds, e.g., provided stapled peptides, were prepared in a buffer (e.g., 50 mM Tris pH 8.0, 250 mM NaCl, 2% glycerol, 0.5 mM EDTA, 0.02% w/v sodium azide) using a 3-fold serial dilution from 5 µM. Probe solution (15 nM full-length ß-Catenin, 20 nM FITC labeled peptide in buffer) was prepared and incubated for a period of time, e.g., 5 minutes, and the a volume, e.g., 40 µL per well plated in suitable plate, e.g., a black polystyrene 384-well plate (Corning). Equal volume of the serial diluted peptide was added to the plate and incubated protected from light for 15 minutes prior to read. Reads were performed on a Spectramax M5 (Molecular Devices) in duplicate. Suitable probe was FITC-PEG1-PQ-S5-ILD-S5-HVRRVWR (SEQ ID NO: 1) (hydrocarbon staple formed by two S5 via olefin metathesis) and/or FITC-bA-PQ-S5-ILD-S5-HVRRVWR (SEQ ID NO: 3) (hydrocarbon staple formed by two S5 via olefin metathesis). […] Another peptide, FPO217c (Ac-AR_8ILDAHIM$B5$RVW (SEQ ID NO: 280), with N-terminal proline removed and valine replaced with isoleucine compared to FP0025c) was prepared.

Molecule: AXILDAHIXRVW (not fully specified; Ac-A-R5-I-L-D-A-H-I-MH-R-V-W-NH2; amino staple R5/MH) [FP0510a]
FP EC50 (full-length beta-catenin): 0.5 to 5 µM

Molecule: AXILDAHIXRVW (not fully specified; Ac-A-R4-I-L-D-A-H-I-MH-R-V-W-NH2; amino staple R4/MH) [FP0509a]
FP EC50 (full-length beta-catenin): 0.5 to 5 µM

Molecule: AXILDAHIXRVW (not fully specified; Ac-A-MG-I-L-D-A-H-I-ME-R-V-W-NH2; carbamate staple MG/ME) [FP0596c]
FP EC50 (full-length beta-catenin): 0.5 to 5 µM

Molecule: Ac-A[R7″]ILDAHI[MA]RVW-NH2 (staple 2-9; not fully specified; printed as Ac-A-R7-I-L-D-A-H-I-MA-R-V-W-NH2) [FP0516a Isomer 2]
FP EC50 (full-length beta-catenin): 0.5 to 5 µM

Molecule: AXILDAHIXRVW (not fully specified; Ac-A-MI-I-L-D-A-H-I-S6-R-V-W-NH2; carbamate staple MI/S6) [FP0507c]
FP EC50 (full-length beta-catenin): 0.5 to 5 µM

Molecule: Ac-A[R8]ILDAHI[MB]RVW-NH2 (staple 2-9; also: Isomer 1, staple olefin E/Z not assigned, also called FPO217c Isomer 1) [FP0217c Isomer 1]
FP EC50 (full-length beta-catenin): 0.5 to 5 µM

B1: FP0495a (peptide)
peptide: Ac-A[R7]ILDAHI[MD]RVW-NH2
modifications: staple 2-9; not fully specified; printed as Ac-A-R7-I-L-D-A-H-I-MD-R-V-W-NH2; also: amino staple R7/MD (-N(R')-, after CO2 extrusion from carbamate staple)
FP EC50 (full-length beta-catenin): 0.5 to 5 µM

Now from value to molecule:

solubility thermodynamic ([1]; DPBS, read-out: solubility): 7 µM (≈ 11.1 µg/mL)
Molecule: CC[C@H](C)[C@@H]1NC(=O)[C@H](Cc2c[nH]cn2)NC(=O)[C@H](C)NC(=O)[C@H](CC(=O)O)NC(=O)[C@H](CC(C)C)NC(=O)[C@H]([C@@H](C)CC)NC(=O)[C@](C)(NC(=O)[C@H](C)NC(C)=O)CCCCCCC=CCOC(=O)N2CC[C@@](C(=O)N[C@@H](CCCNC(=N)N)C(=O)N[C@H](C(=O)N[C@@H](Cc3c[nH]c4ccccc34)C(N)=O)C(C)C)(C2)NC1=O (single isomer, unassigned) [FPO217c, Ac-AR8ILDAHIMBRVW (SEQ ID NO: 280)]

solubility [1]: 2 µM (≈ 3.4 µg/mL)
Molecule: CCCCCCCC(=O)N[C@@H](C)C(=O)N[C@]1(C)CCN(C)C(=O)OCC=CCOC(=O)N2CC[C@@](C(=O)N[C@@H](CCCNC(=N)N)C(=O)N[C@H](C(=O)N[C@@H](Cc3c[nH]c4ccccc34)C(N)=O)C(C)C)(C2)NC(=O)[C@H]([C@@H](C)CC)NC(=O)[C@H](Cc2c[nH]cn2)NC(=O)[C@H](C)NC(=O)[C@H](CC(=O)O)NC(=O)[C@H](CC(C)C)NC(=O)[C@H]([C@@H](C)CC)NC1=O [FP0597c_c8, Oct-A-MG-I-L-D-A-H-I-MB-R-V-W-NH2] (Octanoyl-A[dαMeDab(Me)]ILDAHI[X1]RVW-NH2; linker 2-9 via X2)

solubility ([1]; DPBS): 4 µM (≈ 7.02 µg/mL)
Molecule: CCCCCCCCCCCC(=O)N[C@@H](C)C(=O)N[C@]1(C)CCN(C)C(=O)OCC=CCOC(=O)N2CC[C@@](C(=O)N[C@@H](CCCNC(=N)N)C(=O)N[C@H](C(=O)N[C@@H](Cc3c[nH]c4ccccc34)C(N)=O)C(C)C)(C2)NC(=O)[C@H]([C@@H](C)CC)NC(=O)[C@H](Cc2c[nH]cn2)NC(=O)[C@H](C)NC(=O)[C@H](CC(=O)O)NC(=O)[C@H](CC(C)C)NC(=O)[C@H]([C@@H](C)CC)NC1=O [FP0597c_c12, Dodec-A-MG-I-L-D-A-H-I-MB-R-V-W-NH2] (Lauroyl-A[dαMeDab(Me)]ILDAHI[X1]RVW-NH2; linker 2-9 via X2)

FP EC50 (full-length beta-catenin): 0.5 to 5 µM
Molecule: Ac-A[R8]ILDAHI[MB(4)]RV[αMeW]-NH2 (staple 2-9) [FP0631c]

FP EC50 (full-length beta-catenin): 0.5 to 5 µM
Molecule: Ac-A[R8]ILDAHI[MB(4)]R[αMeL]W-NH2 (staple 2-9) [FP0633c]
